Measurements: patent US20220017612A1 (TILOS THERAPEUTICS, published 2022)
Residue numbers refer to the chain shown, from its start. Several values for one entry are separate records, joined by “and”; a condition that tells them apart may be missing. Equal entries are not always repeated.

B1: 28G11_hIgG1 (antibody, V domains shown)
VH: EVKLVESGGGLVQPGGSLSLSCAASGFTFTDYYMSWVRQPPGKALEWLGFIRNKPNGYTTEYSASVKGRFTISRDNSQSILYLQMNVLRAEDSATYYCARYTGGGYFDYWGQGTTLTVSS
VL: DIQMTQTTSSLSASLGDRLTISCRASQDISNYLNWYQQKPDGTVKLLIYYTSRLHSGVPSRFSGSGSGTDYSLTISNLEQADIATYFCQQGDTLPWTFGGGTKLEIK
B2: 17G8_hIgG1 (antibody, V domains shown)
VH: B1 VH with P55A, V87A, T102K, G103L, Y109V, Q112T, L116V
VL: B1 VL with L19V, A81E, D92N
B3: 24E3_hIgG1 (antibody, V domains shown)
VH: QAYLQQSGAELVRPGASVKMSCKASGYTFTSYNMHWVKQTPRQGLEWIGAIYPGNGDTSYNPKFKGKATLTVDKSSSTAYMQLSSLTSEDSAVYFCTRWDWGGYFDVWGTGTTVTVSS
VL: B1 VL with L19V, A81E, E105G
B4: 28G11_H2.1L3 (antibody, human IgG1, kappa, V domains shown)
VH: EVQLVESGGGLVQPGGSLRLSCAASGFTFTDYYMSWVRQAPGKGLEWLGFIRNKPQGYTTEYSASVKGRFTISRDNSQSSLYLQMNSLKTEDTAVYYCARYTGGGYFDYWGQGTLLTVSS
VL: DIQMTQSPSSLSASVGDRLTISCRASQDISNYLNWYQQKPGKTVKLLIYYTSRLHSGVPSRFSGSGSGTDYTLTISSLQPEDVATYFCQQGDTLPWTFGQGTKLEIKR
B5: 28G11_H2aL3a (antibody, human IgG1, kappa, V domains shown)
VH: B4 VH with L48V, Q56N, Q78K, S79N, L116V
VL: B4 VL with T43V, F87Y

Legend:
[1] = biological target: T1, human LAP-TGFβ2 overexpressed on HT1080 cells (human, UniProt P61812 21-414); assay: flow cytometry titration, HT1080-huB2 cells
T1 construct: also called HT1080-huB2
T1 sequence: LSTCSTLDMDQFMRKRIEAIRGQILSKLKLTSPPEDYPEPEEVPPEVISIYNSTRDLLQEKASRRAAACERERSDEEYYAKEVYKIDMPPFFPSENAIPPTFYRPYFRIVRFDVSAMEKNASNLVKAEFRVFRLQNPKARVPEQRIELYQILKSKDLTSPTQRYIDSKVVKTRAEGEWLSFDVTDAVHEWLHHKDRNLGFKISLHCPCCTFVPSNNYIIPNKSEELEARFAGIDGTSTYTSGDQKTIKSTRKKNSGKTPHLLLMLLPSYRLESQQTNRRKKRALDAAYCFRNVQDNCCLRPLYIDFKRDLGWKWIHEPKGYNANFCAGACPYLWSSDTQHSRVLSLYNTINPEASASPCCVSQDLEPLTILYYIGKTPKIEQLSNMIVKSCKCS
Method: (§1) This Example describes the binding of anti-LAP antibodies to LAP-TGFβ isoforms and LAP-TGFβ variants. In addition to antibodies 28G11_hIgG1, 22F9_hIgG1, and 20E6_hIgG1, anti-LAP antibodies 17G8_hIgG1, 24E3_hIgG1, and 2C9_(hyb) were also tested in this experiment. Briefly, 4×10⁵ each of (a) HT1080 cells, (b) HT1080 cells overexpressing human LAP-TGFβ1, (c) HT1080 cells overexpressing human LAP-TGFβ2, (d) HT1080 cells overexpressing human LAP-TGFβ3, (e) HT1080 cells overexpressing murine LAP-TGFβ1, (f) P3U1 cells, (g) P3U1 cells overexpressing LAP-TGFβ1 and GARP, and (h) P3U1 cells overexpressing LAP-TGFβ1 and LRRC33 were cultured in 96-well plates. The plates were centrifuged for 5 min at 1,500 rpm, liquid was removed, and cells were resuspended with 200 μL FACS buffer. The plates were centrifuged again, diluted primary antibody was added to each well, and the plates were incubated on ice for 20 minutes, followed by centrifugation. The cells were resuspended in 200 μL FACS buffer, centrifuged again, and resuspended in 50 μL diluted secondary antibody (Alexa647-anti-Human IgG or APC-anti-Mouse IgG). The plates were incubated on ice for 20 minutes in the dark, washed twice with 200 μL FACS buffer, and cells from each well (in 200 μL FACS buffer) were read on the Attune NXT instrument.

[2] = biological target: T2, human LAP-TGFβ1 with a Y74T mutation on HT1080 cells (human, UniProt P01137 30-390); assay: flow cytometry, HT1080 cells; grey bar = no anti-LAP antibody
T2 construct: also called HT1080-Y74T; open conformation
Method: as §1
(§2) Cells were processed for flow cytometry in the same manner described above for the isoform-specific binding experiments.

[3] = biological target: T3, LAP-only variant of human TGFβ1 (empty LAP) on HT1080 cells (human, UniProt P01137 30-277); assay: as above
T3 construct: LAP without the mature cytokine; also called HT1080-emptyLAP; LAP-only construct
Method: as §1, §2

[4] = biological target: T4, human-chicken LAP-TGFβ1 chimera #2.2 on HT1080 cells (human/chicken chimera, UniProt P01137 30-390); assay: as above
T4 construct: also called HT1080-ch2.2
Method: as §1, §2

[5] = biological target: T5, human LAP-TGFβ1 with K27C and Y75C mutations on HT1080 cells (human, UniProt P01137 30-390); assay: as above
T5 construct: also called closed conformation
Method: as §1, §2

[6] = biological target: T6, mature human TGFβ1 (free TGFβ1, without LAP) (human, UniProt P01137 279-390); assay: TGFβ1 ELISA after pre-incubation of 1000 pg mature TGFβ1 with antibody; loss of signal reflects binding
T6 construct: also called mature TGFβ; free human TGFβ1
Method: To determine whether anti-LAP antibodies 28G11_hIgG1, 22F9_hIgG1, 20E6_hIgG1, 17G8_hIgG1, and 24E3_hIgG1, bind to free human TGFβ1 (i.e., mature TGFβ1 that lacks LAP), the ability of the antibodies to inhibit an anti-TGFβ ELISA was evaluated. Briefly, mature TGFβ1 (1000 pg) was incubated with the indicated anti-LAP antibodies at 10 μg/mL, an isotype control antibody as a negative control or the commercially available anti-TGFβ antibody 1D11 as a positive control for 10 minutes on ice. For example, the 1D11 antibody is commercially available from any number of sellers, for example Bio x Cell Inc. (West Lebanon, N.H.). Supernatants were assayed in a TGFβ1 ELISA (R&D Systems) according to the manufacturer instructions to measure free TGFβ1. […] Note that Figure and FIG. are used interchangeably in this application.

[7] = biological target: T7, human LAP-TGFβ3 overexpressed on HT1080 cells (human, UniProt P10600 24-412); assay: flow cytometry titration, HT1080-huB3 cells
T7 construct: also called HT1080-huB3
T7 sequence: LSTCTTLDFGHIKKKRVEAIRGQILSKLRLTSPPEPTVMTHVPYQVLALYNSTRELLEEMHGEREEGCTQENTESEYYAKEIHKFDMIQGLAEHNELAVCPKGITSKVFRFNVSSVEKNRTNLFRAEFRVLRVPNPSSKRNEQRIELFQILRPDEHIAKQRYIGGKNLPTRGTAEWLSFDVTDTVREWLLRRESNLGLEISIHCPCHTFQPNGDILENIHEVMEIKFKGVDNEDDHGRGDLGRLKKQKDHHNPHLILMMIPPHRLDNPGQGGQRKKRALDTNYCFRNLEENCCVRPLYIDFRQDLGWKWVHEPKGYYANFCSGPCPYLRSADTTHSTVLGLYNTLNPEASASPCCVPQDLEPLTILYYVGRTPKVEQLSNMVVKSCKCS
Method: as §1

[8] = biological target: T8, murine LAP-TGFβ1 with a C-terminal polyhistidine purification tag (mouse, UniProt P04202 30-390); assay: BLI, antibody on tip, 1:1 model
T8 construct: also called Mouse LAP-TGFβ1
Method: (§3) The chimeric antibodies were biotinylated using EZ-Link SulfoNHS-LC-Biotin (ThermoFisher). A streptavidin-functionalized tip was equilibrated in binding buffer (10 mM sodium phosphate, 150 mM sodium chloride, 1% (w/v) bovine serum albumin, 0.05% (w/v) sodium azide, pH 7.4). The tip was dipped in a 10 μg/mL solution of biotinylated, chimeric anti-LAP in binding buffer for 15 seconds to load the tip with antibody. The antibody-loaded tip was then washed in binding buffer and placed in a solution containing 0-24 nM of LAP-TGFβ1 (either a fusion protein containing a human IgG1 Fc domain fused to human LAP-TGFβ1 or a murine LAP-TGFβ1 with a C-terminal polyhistidine purification tag). The antigen was allowed to bind to antibody for 5 minutes (association phase), and then the tip was moved to binding buffer (dissociation phase). The association and dissociation phases were fit to a 1:1 binding model to determine the binding rate constants.

[9] = biological target: T9, fusion protein of a human IgG1 Fc domain and human LAP-TGFβ1 (human, UniProt P01137 30-390); assay: BLI, antibody on tip, 1:1 model
T9 construct: printed both as Fc-huB1 and LAP-TGFβ-Fc; also called Fc-huB1; Fc-human LAP
Method: as §3

[10] = biological target: murine LAP-TGFβ1 overexpressed on cells (mouse, UniProt P04202 30-390); assay: cell-based or functional assay
[11] = biological target: T10, human LAP-TGFβ1 overexpressed on cells (human, UniProt P01137 30-390); assay: cell-based or functional assay
[12] = biological target: T10, human LAP-TGFβ1 overexpressed on cells; assay: cell-based or functional assay; remark: listed apart in the source
[13] = biological target: T11, human GARP and human LAP-TGFβ1 co-expressed on P3U1 cells (human, UniProt Q14392 20-662); assay: flow cytometry, P3U1 cells
T11 construct: whole, on cells; also called P3U1 cells over-expressing human GARP and LAP-TGFβ1
Method: as §1

[14] = biological target: T12, human-chicken LAP-TGFβ1 chimera #2.3 on HT1080 cells (human/chicken chimera, UniProt P01137 30-390); assay: flow cytometry, HT1080 cells; grey bar = no anti-LAP antibody
T12 construct: also called HT1080-ch2.3
Method: as §1, §2

[15] = biological target: T10, human LAP-TGFβ1 overexpressed on cells; assay: flow cytometry; legend box on the sheet: black HT1080-null, grey HT1080-huB1

Chain of murine LAP-TGFβ1 overexpressed on cells (P04202 30-390): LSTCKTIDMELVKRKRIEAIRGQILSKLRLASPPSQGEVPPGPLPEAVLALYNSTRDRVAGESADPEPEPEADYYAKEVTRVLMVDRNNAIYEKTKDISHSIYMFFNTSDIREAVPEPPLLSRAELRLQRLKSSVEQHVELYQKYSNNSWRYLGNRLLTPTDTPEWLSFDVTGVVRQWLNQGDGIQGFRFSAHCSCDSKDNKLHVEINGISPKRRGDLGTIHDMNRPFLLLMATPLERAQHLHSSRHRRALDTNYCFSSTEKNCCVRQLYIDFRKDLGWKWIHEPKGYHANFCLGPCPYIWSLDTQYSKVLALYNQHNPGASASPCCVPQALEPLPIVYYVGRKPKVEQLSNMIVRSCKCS
T8 sequence (P04202 30-390 limits assumed): as the sequence (P04202 30-390) above
T5 sequence (P01137 other isoform, or with tags, fused parts or gaps K27C Y75C K27C Y75C): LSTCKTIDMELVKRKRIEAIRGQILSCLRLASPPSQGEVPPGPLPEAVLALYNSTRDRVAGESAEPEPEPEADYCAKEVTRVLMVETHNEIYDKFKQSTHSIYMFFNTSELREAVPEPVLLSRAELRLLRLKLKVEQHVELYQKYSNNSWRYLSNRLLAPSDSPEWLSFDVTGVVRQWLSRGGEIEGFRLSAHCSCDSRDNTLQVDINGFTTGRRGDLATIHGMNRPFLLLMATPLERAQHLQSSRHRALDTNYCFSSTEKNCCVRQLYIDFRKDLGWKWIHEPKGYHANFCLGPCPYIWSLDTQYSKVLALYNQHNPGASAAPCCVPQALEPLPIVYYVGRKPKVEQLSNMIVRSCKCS
T9 sequence (P01137 30-390 limits assumed): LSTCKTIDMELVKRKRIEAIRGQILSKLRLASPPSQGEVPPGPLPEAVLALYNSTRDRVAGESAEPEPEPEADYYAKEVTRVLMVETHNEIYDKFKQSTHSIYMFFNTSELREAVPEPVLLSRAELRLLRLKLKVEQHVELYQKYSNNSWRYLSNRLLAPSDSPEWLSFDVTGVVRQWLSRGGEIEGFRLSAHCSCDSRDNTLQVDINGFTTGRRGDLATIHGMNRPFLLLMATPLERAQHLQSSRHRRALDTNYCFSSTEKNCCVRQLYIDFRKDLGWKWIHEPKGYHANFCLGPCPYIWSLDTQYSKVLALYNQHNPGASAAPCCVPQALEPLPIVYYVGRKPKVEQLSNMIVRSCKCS
T10 sequence (P01137 30-390): as the sequence (P01137 30-390 limits assumed) above
T4 sequence (P01137 other isoform, or with tags, fused parts or gaps mutant): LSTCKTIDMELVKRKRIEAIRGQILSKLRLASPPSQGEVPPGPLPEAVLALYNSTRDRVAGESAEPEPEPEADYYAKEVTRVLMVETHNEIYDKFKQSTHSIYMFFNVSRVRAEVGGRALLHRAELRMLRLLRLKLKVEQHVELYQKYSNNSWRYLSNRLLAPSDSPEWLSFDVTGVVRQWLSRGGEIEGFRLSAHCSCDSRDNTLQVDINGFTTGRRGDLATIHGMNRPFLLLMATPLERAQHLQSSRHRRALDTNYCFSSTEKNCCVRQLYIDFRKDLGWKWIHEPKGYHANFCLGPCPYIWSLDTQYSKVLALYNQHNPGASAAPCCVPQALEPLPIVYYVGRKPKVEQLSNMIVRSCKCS
T3 sequence (P01137 30-277, change not shown): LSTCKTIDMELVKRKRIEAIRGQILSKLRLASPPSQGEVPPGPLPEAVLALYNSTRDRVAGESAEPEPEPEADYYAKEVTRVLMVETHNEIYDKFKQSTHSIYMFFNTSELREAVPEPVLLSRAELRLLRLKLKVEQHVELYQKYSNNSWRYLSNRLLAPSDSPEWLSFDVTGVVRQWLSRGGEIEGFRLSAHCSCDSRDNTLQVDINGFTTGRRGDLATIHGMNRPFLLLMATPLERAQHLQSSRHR
T2 sequence (P01137 other isoform, or with tags, fused parts or gaps Y74T Y74T): as the sequence (P01137 other isoform, or with tags, fused parts or gaps K27C Y75C K27C Y75C) above, with C27K, Y74T, C75Y counted along it
T6 sequence (P01137 279-390 limits assumed): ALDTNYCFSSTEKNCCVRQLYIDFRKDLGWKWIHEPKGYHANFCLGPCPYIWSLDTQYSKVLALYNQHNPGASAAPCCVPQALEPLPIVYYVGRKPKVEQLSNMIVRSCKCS
T11 sequence (chain, as listed by the source, chain 1 of 2): as the sequence (P01137 30-390 limits assumed) above
T11 sequence (Q14392 20-662, chain 2 of 2): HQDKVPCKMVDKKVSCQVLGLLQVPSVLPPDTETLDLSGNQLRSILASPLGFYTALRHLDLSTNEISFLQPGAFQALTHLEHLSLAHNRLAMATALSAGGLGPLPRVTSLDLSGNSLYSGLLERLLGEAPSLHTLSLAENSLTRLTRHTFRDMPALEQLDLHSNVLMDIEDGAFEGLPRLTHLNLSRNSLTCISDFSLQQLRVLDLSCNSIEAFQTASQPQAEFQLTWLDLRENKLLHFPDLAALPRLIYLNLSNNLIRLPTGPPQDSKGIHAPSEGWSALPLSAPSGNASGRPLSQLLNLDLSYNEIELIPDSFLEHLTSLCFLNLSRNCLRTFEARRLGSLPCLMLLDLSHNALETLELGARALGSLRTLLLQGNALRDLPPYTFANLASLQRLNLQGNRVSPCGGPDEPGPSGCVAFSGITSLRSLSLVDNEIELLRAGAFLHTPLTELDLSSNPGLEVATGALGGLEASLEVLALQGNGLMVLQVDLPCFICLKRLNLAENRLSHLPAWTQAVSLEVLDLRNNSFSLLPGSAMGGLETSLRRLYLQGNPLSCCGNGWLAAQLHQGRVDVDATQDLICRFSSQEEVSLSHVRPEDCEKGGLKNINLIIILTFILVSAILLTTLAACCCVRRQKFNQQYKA
T12 sequence (P01137 other isoform, or with tags, fused parts or gaps mutant): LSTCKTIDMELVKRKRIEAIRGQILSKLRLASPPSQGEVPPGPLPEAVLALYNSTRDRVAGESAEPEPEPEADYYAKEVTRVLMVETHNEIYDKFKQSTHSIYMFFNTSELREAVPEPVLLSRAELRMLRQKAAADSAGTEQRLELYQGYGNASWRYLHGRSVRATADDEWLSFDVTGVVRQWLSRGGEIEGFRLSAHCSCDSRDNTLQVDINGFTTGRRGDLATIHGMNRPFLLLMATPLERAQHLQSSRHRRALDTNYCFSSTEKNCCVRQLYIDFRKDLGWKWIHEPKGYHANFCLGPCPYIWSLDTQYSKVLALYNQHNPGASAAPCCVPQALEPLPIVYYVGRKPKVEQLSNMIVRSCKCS

Row | Binder | binding result [1] | binding result [2] | binding result [3] | binding result [4] | binding result [5] | binding result [6] | binding result [7] | binding result [13] | binding result [14] | IC50 of inhibition of TGFβ1 activation [10] | IC50 of inhibition of TGFβ1 activation [11] | binding result [15] | other results
1 | B1 | no binding (tested: about 800 ng/well) | no binding | no binding | no binding | binds | no binding (tested: 10 µg/mL) | no binding (tested: about 800 ng/well) | – | – | – | – | – | Kd [8]: 0.19 nM; koff [8]: 0.000158 s⁻¹; kon [8]: 840000 M⁻¹ s⁻¹; Kd [9]: 0.67 nM; koff [9]: 0.00036 s⁻¹; kon [9]: 540000 M⁻¹ s⁻¹; IC50 of inhibition of TGFβ1 activation (ELISA of active TGFβ1) [10]: 1 mg/L; IC50 of inhibition of TGFβ1 activation (ELISA of active TGFβ1) [11]: 1.4 mg/L; Inhibition of human TGFβ1 activation (IC50) [12]: 2.3 mg/L
2 | B2 | no binding (tested: about 800 ng/well) | no binding | no binding | no binding | binds | no binding (tested: 10 µg/mL) | no binding (tested: about 800 ng/well) | binds | binds | 1.4 mg/L and 0.59 mg/L | 1 /ml (as printed) and 1.5 ug/ml | – | –
3 | B3 | no binding (tested: about 800 ng/well) | no binding | no binding | no binding | binds | no binding (tested: 10 µg/mL) | no binding (tested: about 800 ng/well) | binds | binds | 1.1 mg/L and 0.76 mg/L | 2.5 mg/L and 2.6 mg/L | – | –
4 | B4 | – | – | – | – | – | – | – | – | – | – | – | binds | –
5 | B5 | – | – | – | – | – | – | – | – | – | – | – | binds | –
